Experimental data from US20250109215A1 (Xencor, published 2025).

Key:
[1] = target: T1, human CD3 (human, UniProt P07766 23-126; P04234 22-105); assay: SPR; human CD3-Fc (printed 'CD388-Fc', Sino Biological) covalently bound to the chip; test article passed over at 3.125, 12.5, 50 and 200 nM
T1 construct: The legend says only human CD3

[2] = target: T1, human CD3; assay: SPR; human CD3-Fc (printed 'CD388-Fc', Sino Biological) covalently bound to the chip; test article passed over at 31.25, 125, 500 and 2000 nM
[3] = target: T2, cyno CD3 (cynomolgus monkey, UniProt Q95LI5 22-117; Q95LI8 22-105); assay: SPR; cynomolgus monkey CD3-Fc (printed 'CD388-Fc', Sino Biological) covalently bound to the chip; test article passed over at 3.125, 12.5, 50 and 200 nM
T2 construct: The legend says only cyno CD3; also called cynomolgus monkey CD3
T2 sequence (Q95LI5 22-117, form in doubt, chain 1 of 2): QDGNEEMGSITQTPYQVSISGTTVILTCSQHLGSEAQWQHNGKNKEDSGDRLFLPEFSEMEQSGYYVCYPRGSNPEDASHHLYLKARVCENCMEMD
T2 sequence (Q95LI8 22-105, form in doubt, chain 2 of 2): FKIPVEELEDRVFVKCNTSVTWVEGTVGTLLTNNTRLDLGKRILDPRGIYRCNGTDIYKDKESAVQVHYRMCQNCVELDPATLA

[4] = target: T2, cyno CD3; assay: SPR; cynomolgus monkey CD3-Fc (printed 'CD388-Fc', Sino Biological) covalently bound to the chip; test article passed over at 31.25, 125, 500 and 2000 nM

T1 sequence (P07766 23-126, chain 1 of 2): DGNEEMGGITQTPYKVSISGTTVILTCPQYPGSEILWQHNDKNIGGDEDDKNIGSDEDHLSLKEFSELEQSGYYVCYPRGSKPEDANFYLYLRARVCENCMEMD
T1 sequence (P04234 22-105, chain 2 of 2): as the sequence (Q95LI8 22-105, form in doubt, chain 2 of 2) above, with V5I, K15N, V20I, T32S, N33D, N34I, A64T, N74S, L83V counted along it

| Binder | Kd [1] | Kd [2] | Kd [3] | Kd [4] |
| --- | --- | --- | --- | --- |
| XENP14393 (bispecific antibody, anti-CD3 scFv H1.90_L1.47; also called Anti-CD20 (C2B8_H1.202_L1.113) x Anti-CD3 (H1.90_L1.47) Fab-scFv-Fc) HC 1 (Fab-Fc): QVQLVQSGAEVKKPGASVKVSCKASGYTFTSYNMHWVRQAPGQRLEWMGAIYPGNGATSYSQKFQGRVTITADTSASTAYMELSSLRSEDTAVYYCARSYYMGGDWYFDVWGAGTLVTVSSASTKGPSVFPLAPSSKSTSGGTAALGCLVKDYFPEPVTVSWNSGALTSGVHTFPAVLQSSGLYSLSSVVTVPSSSLGTQTYICNVNHKPSDTKVDKKVEPKSCDKTHTCPPCPAPPVAGPSVFLFPPKPKDTLMISRTPEVTCVVVDVKHEDPEVKFNWYVDGVEVHNAKTKPREEEYNSTYRVVSVLTVLHQDWLNGKEYKCKVSNKALPAPIEKTISKAKGQPREPQVYTLPPSREEMTKNQVSLTCDVSGFYPSDIAVEWESDGQPENNYKTTPPVLDSDGSFFLYSKLTVDKSRWEQGDVFSCSVMHEALHNHYTQKSLSLSPGK HC 2 (scFv-Fc): not shown light: QIVLTQSPSSLSASVGDRVTITCRASWSVSYIHWFQQKPGKSPKPLIYATSNLASGVPVRFSGSGSGTDYTLTISSLQPEDFATYYCQQWTHNPPTFGGGTKVEIKRTVAAPSVFIFPPSDEQLKSGTASVVCLLNNFYPREAKVQWKVDNALQSGNSQESVTEQDSKDSTYSLSSTLTLSKADYEKHKVYACEVTHQGLSSPVTKSFNRGEC | 0.12 µM |  | 0.12 µM |  |
| XENP16374 (bispecific antibody, anti-CD3 scFv H1.106_L1.47; also called Anti-CD20 (C2B8_H1.202_L1.113) x Anti-CD3 (H1.106_L1.47) Fab-scFv-Fc) HC 1 (Fab-Fc): QVQLVQSGAEVKKPGASVKVSCKASGYTFTSYNMHWVRQAPGQRLEWMGAIYPGNGATSYSQKFQGRVTITADTSASTAYMELSSLRSEDTAVYYCARSYYMGGDWYFDVWGAGTLVTVSSASTKGPSVFPLAPSSKSTSGGTAALGCLVKDYFPEPVTVSWNSGALTSGVHTFPAVLQSSGLYSLSSVVTVPSSSLGTQTYICNVNHKPSDTKVDKKVEPKSCDKTHTCPPCPAPPVAGPSVFLFPPKPKDTLMISRTPEVTCVVVDVKHEDPEVKFNWYVDGVEVHNAKTKPREEEYNSTYRVVSVLTVLHQDWLNGKEYKCKVSNKALPAPIEKTISKAKGQPREPQVYTLPPSREEMTKNQVSLTCDVSGFYPSDIAVEWESDGQPENNYKTTPPVLDSDGSFFLYSKLTVDKSRWEQGDVFSCSVMHEALHNHYTQKSLSLSPGK HC 2 (scFv-Fc): not shown light: QIVLTQSPSSLSASVGDRVTITCRASWSVSYIHWFQQKPGKSPKPLIYATSNLASGVPVRFSGSGSGTDYTLTISSLQPEDFATYYCQQWTHNPPTFGGGTKVEIKRTVAAPSVFIFPPSDEQLKSGTASVVCLLNNFYPREAKVQWKVDNALQSGNSQESVTEQDSKDSTYSLSSTLTLSKADYEKHKVYACEVTHQGLSSPVTKSFNRGEC |  | 1.3 µM |  | 1.1 µM |
| XENP14392 (bispecific antibody, anti-CD3 scFv H1.89_L1.47; also called Anti-CD20 (C2B8_H1.202_L1.113) x Anti-CD3 (H1.89_L1.47) Fab-scFv-Fc) HC 1 (Fab-Fc): QVQLVQSGAEVKKPGASVKVSCKASGYTFTSYNMHWVRQAPGQRLEWMGAIYPGNGATSYSQKFQGRVTITADTSASTAYMELSSLRSEDTAVYYCARSYYMGGDWYFDVWGAGTLVTVSSASTKGPSVFPLAPSSKSTSGGTAALGCLVKDYFPEPVTVSWNSGALTSGVHTFPAVLQSSGLYSLSSVVTVPSSSLGTQTYICNVNHKPSDTKVDKKVEPKSCDKTHTCPPCPAPPVAGPSVFLFPPKPKDTLMISRTPEVTCVVVDVKHEDPEVKFNWYVDGVEVHNAKTKPREEEYNSTYRVVSVLTVLHQDWLNGKEYKCKVSNKALPAPIEKTISKAKGQPREPQVYTLPPSREEMTKNQVSLTCDVSGFYPSDIAVEWESDGQPENNYKTTPPVLDSDGSFFLYSKLTVDKSRWEQGDVFSCSVMHEALHNHYTQKSLSLSPGK HC 2 (scFv-Fc): not shown light: QIVLTQSPSSLSASVGDRVTITCRASWSVSYIHWFQQKPGKSPKPLIYATSNLASGVPVRFSGSGSGTDYTLTISSLQPEDFATYYCQQWTHNPPTFGGGTKVEIKRTVAAPSVFIFPPSDEQLKSGTASVVCLLNNFYPREAKVQWKVDNALQSGNSQESVTEQDSKDSTYSLSSTLTLSKADYEKHKVYACEVTHQGLSSPVTKSFNRGEC | 0.12 µM |  | 0.11 µM |  |
| XENP16373 (bispecific antibody, anti-CD3 scFv H1.105_L1.47; also called Anti-CD20 (C2B8_H1.202_L1.113) x Anti-CD3 (H1.105_L1.47) Fab-scFv-Fc) HC 1 (Fab-Fc): QVQLVQSGAEVKKPGASVKVSCKASGYTFTSYNMHWVRQAPGQRLEWMGAIYPGNGATSYSQKFQGRVTITADTSASTAYMELSSLRSEDTAVYYCARSYYMGGDWYFDVWGAGTLVTVSSASTKGPSVFPLAPSSKSTSGGTAALGCLVKDYFPEPVTVSWNSGALTSGVHTFPAVLQSSGLYSLSSVVTVPSSSLGTQTYICNVNHKPSDTKVDKKVEPKSCDKTHTCPPCPAPPVAGPSVFLFPPKPKDTLMISRTPEVTCVVVDVKHEDPEVKFNWYVDGVEVHNAKTKPREEEYNSTYRVVSVLTVLHQDWLNGKEYKCKVSNKALPAPIEKTISKAKGQPREPQVYTLPPSREEMTKNQVSLTCDVSGFYPSDIAVEWESDGQPENNYKTTPPVLDSDGSFFLYSKLTVDKSRWEQGDVFSCSVMHEALHNHYTQKSLSLSPGK HC 2 (scFv-Fc): EVQLVESGGGLVQPGGSLRLSCAASGFTFSTYAMNWVRQAPGKGLEWVGRIRSKYNNYATYYADSVKGRFTISRDDSKNTLYLQMNSLRAEDTAVYYCVRHGNFGDQYVSWFDYWGQGTLVTVSSGKPGSGKPGSGKPGSGKPGSQAVVTQEPSLTVSPGGTVTLTCGSSTGAVTTSNYANWVQQKPGKSPRGLIGGTNKRAPGVPARFSGSLLGGKAALTISGAQPEDEADYYCALWYSNHWVFGGGTKLTVLEPKSSDKTHTCPPCPAPPVAGPSVFLFPPKPKDTLMISRTPEVTCVVVDVKHEDPEVKFNWYVDGVEVHNAKTKPREEQYNSTYRVVSVLTVLHQDWLNGKEYKCKVSNKALPAPIEKTISKAKGQPREPQVYTLPPSREQMTKNQVKLTCLVKGFYPSDIAVEWESNGQPENNYKTTPPVLDSDGSFFLYSKLTVDKSRWQQGNVFSCSVMHEALHNHYTQKSLSLSPGK light: QIVLTQSPSSLSASVGDRVTITCRASWSVSYIHWFQQKPGKSPKPLIYATSNLASGVPVRFSGSGSGTDYTLTISSLQPEDFATYYCQQWTHNPPTFGGGTKVEIKRTVAAPSVFIFPPSDEQLKSGTASVVCLLNNFYPREAKVQWKVDNALQSGNSQESVTEQDSKDSTYSLSSTLTLSKADYEKHKVYACEVTHQGLSSPVTKSFNRGEC |  | 4 µM |  | 0.42 µM |

More lines, now with the values ahead:

| Kd [1] | Kd [2] | Kd [3] | Kd [4] | Binder |
| --- | --- | --- | --- | --- |
| ~2 µM | 1.2 µM | ~1 µM | 1.2 µM | XENP14388 (bispecific antibody, anti-CD3 scFv H1.31_L1.47; also called Anti-CD20 (C2B8_H1.202_L1.113) x Anti-CD3 (H1.31_L1.47) Fab-scFv-Fc; CD3low) HC 1 (Fab-Fc): QVQLVQSGAEVKKPGASVKVSCKASGYTFTSYNMHWVRQAPGQRLEWMGAIYPGNGATSYSQKFQGRVTITADTSASTAYMELSSLRSEDTAVYYCARSYYMGGDWYFDVWGAGTLVTVSSASTKGPSVFPLAPSSKSTSGGTAALGCLVKDYFPEPVTVSWNSGALTSGVHTFPAVLQSSGLYSLSSVVTVPSSSLGTQTYICNVNHKPSDTKVDKKVEPKSCDKTHTCPPCPAPPVAGPSVFLFPPKPKDTLMISRTPEVTCVVVDVKHEDPEVKFNWYVDGVEVHNAKTKPREEEYNSTYRVVSVLTVLHQDWLNGKEYKCKVSNKALPAPIEKTISKAKGQPREPQVYTLPPSREEMTKNQVSLTCDVSGFYPSDIAVEWESDGQPENNYKTTPPVLDSDGSFFLYSKLTVDKSRWEQGDVFSCSVMHEALHNHYTQKSLSLSPGK HC 2 (scFv-Fc): not shown light: QIVLTQSPSSLSASVGDRVTITCRASWSVSYIHWFQQKPGKSPKPLIYATSNLASGVPVRFSGSGSGTDYTLTISSLQPEDFATYYCQQWTHNPPTFGGGTKVEIKRTVAAPSVFIFPPSDEQLKSGTASVVCLLNNFYPREAKVQWKVDNALQSGNSQESVTEQDSKDSTYSLSSTLTLSKADYEKHKVYACEVTHQGLSSPVTKSFNRGEC |
|  | 1.1 µM |  | 0.86 µM | XENP16376 (bispecific antibody, anti-CD3 scFv H1.108_L1.47; also called Anti-CD20 (C2B8_H1.202_L1.113) x Anti-CD3 (H1.108_L1.47) Fab-scFv-Fc) HC 1 (Fab-Fc): QVQLVQSGAEVKKPGASVKVSCKASGYTFTSYNMHWVRQAPGQRLEWMGAIYPGNGATSYSQKFQGRVTITADTSASTAYMELSSLRSEDTAVYYCARSYYMGGDWYFDVWGAGTLVTVSSASTKGPSVFPLAPSSKSTSGGTAALGCLVKDYFPEPVTVSWNSGALTSGVHTFPAVLQSSGLYSLSSVVTVPSSSLGTQTYICNVNHKPSDTKVDKKVEPKSCDKTHTCPPCPAPPVAGPSVFLFPPKPKDTLMISRTPEVTCVVVDVKHEDPEVKFNWYVDGVEVHNAKTKPREEEYNSTYRVVSVLTVLHQDWLNGKEYKCKVSNKALPAPIEKTISKAKGQPREPQVYTLPPSREEMTKNQVSLTCDVSGFYPSDIAVEWESDGQPENNYKTTPPVLDSDGSFFLYSKLTVDKSRWEQGDVFSCSVMHEALHNHYTQKSLSLSPGK HC 2 (scFv-Fc): not shown light: QIVLTQSPSSLSASVGDRVTITCRASWSVSYIHWFQQKPGKSPKPLIYATSNLASGVPVRFSGSGSGTDYTLTISSLQPEDFATYYCQQWTHNPPTFGGGTKVEIKRTVAAPSVFIFPPSDEQLKSGTASVVCLLNNFYPREAKVQWKVDNALQSGNSQESVTEQDSKDSTYSLSSTLTLSKADYEKHKVYACEVTHQGLSSPVTKSFNRGEC |
|  | 1 µM |  | 0.88 µM | XENP16375 (bispecific antibody, anti-CD3 scFv H1.107_L1.47; also called Anti-CD20 (C2B8_H1.202_L1.113) x Anti-CD3 (H1.107_L1.47) Fab-scFv-Fc) HC 1 (Fab-Fc): QVQLVQSGAEVKKPGASVKVSCKASGYTFTSYNMHWVRQAPGQRLEWMGAIYPGNGATSYSQKFQGRVTITADTSASTAYMELSSLRSEDTAVYYCARSYYMGGDWYFDVWGAGTLVTVSSASTKGPSVFPLAPSSKSTSGGTAALGCLVKDYFPEPVTVSWNSGALTSGVHTFPAVLQSSGLYSLSSVVTVPSSSLGTQTYICNVNHKPSDTKVDKKVEPKSCDKTHTCPPCPAPPVAGPSVFLFPPKPKDTLMISRTPEVTCVVVDVKHEDPEVKFNWYVDGVEVHNAKTKPREEEYNSTYRVVSVLTVLHQDWLNGKEYKCKVSNKALPAPIEKTISKAKGQPREPQVYTLPPSREEMTKNQVSLTCDVSGFYPSDIAVEWESDGQPENNYKTTPPVLDSDGSFFLYSKLTVDKSRWEQGDVFSCSVMHEALHNHYTQKSLSLSPGK HC 2 (scFv-Fc): not shown light: QIVLTQSPSSLSASVGDRVTITCRASWSVSYIHWFQQKPGKSPKPLIYATSNLASGVPVRFSGSGSGTDYTLTISSLQPEDFATYYCQQWTHNPPTFGGGTKVEIKRTVAAPSVFIFPPSDEQLKSGTASVVCLLNNFYPREAKVQWKVDNALQSGNSQESVTEQDSKDSTYSLSSTLTLSKADYEKHKVYACEVTHQGLSSPVTKSFNRGEC |
